B1: WW domain-binding protein 4, residues 8 to 43; numbered along this chain, O75554 (parent)
chain: QPKKFCDYCKCWIADNRPSVEFHERGKNHKENVAKR

Variants of: B1
Assay: abundance fitness (aPCA) (normalised: wild type 0, dead -1); higher = more abundant; growth selection in yeast, the domain comes from the species named
Settings: Homo sapiens

Abundance fitness, by site and new letter:
Q1: T -0.509; R -0.979; L -0.654; I 0.404; W -1.47; Y -0.422; C -1.36; H -0.275
F22: E 0.07; Y -0.224; Q 0.238; A 0.09; S -0.01; K -0.129; P -0.061; R -0.075; M 0.235
K30: C 0.022; D -0.265; S -0.117; A -0.101; P -0.246; G -0.019; V -0.036; W -0.345; M -0.177; L -0.061; Q -0.02; R 0.049
R25: V 0.003; E -0.039; T 0.014; L -0.106; Q 0.049; W -0.331; D 0.099; M 0.079; G 0.039; K 0
C9: T -0.635; K -0.983; S -0.116; V -1.28; W -1.2; G -0.525; M -1.23; D -0.541; L -1.13
V20: D -0.591; E -0.127; Q -0.254; Y -0.63; G -0.272; I -0.275; L -0.314; C -0.574; P -0.512
K35: M -0.092; P -0.002; S -0.034; N -0.085; D -0.057; E -0.099; T -0.043; G 0; R 0.004
E31: A 0.01; L -0.229; R -0.103; C -0.302; S -0.326; V -0.11; K -0.107; P -0.332; Q -0.072; H -0.29; M -0.065
D7: M -0.241; K -0.272; E 0.007; S -0.131; V -0.6; P -0.529; Q -0.113
D15: V -0.313; M -0.128; F -0.235; L -0.332; W -0.391; Q -0.262; C -0.48; P -0.186
Y8: G -0.224; K -0.309; V -0.249; P 0.343; T -0.07; C -0.269; M 0.054; W -0.118
N16: Y -0.06; V -0.14; L -0.175; W -0.268; K 0.102; F -0.143; A 0.135; M 0.024; R -0.141; S -0.177; E 0.027
K4: D -0.573; N -0.226; T -0.022; F -0.177; C -0.453; R -0.374; G -0.497; V -0.507; L -0.366; M 0.13; E -0.355
H29: Q -0.656; F -1; T -0.63; K -0.562; Y -0.736; M -0.475; D -0.995; S -0.542; P -0.894
S19: Q -0.218; D -0.13; V -0.451; W -0.672; C -0.516; L -0.467; A -0.058; T -0.079; F -0.797; G -0.3
N32: L -0.166; Y -0.289; K -0.111; S -0.086; H -0.172; M -0.228; I -0.446; A 0.038; R -0.1; F -0.405; C -0.158
E24: R -0.497; M -0.451; K -0.187; L -0.614; G -0.364; N -0.163; W -0.413; Y -0.183; F -0.181
N28: L 0.046; R 0.149; T -0.102; G 0.109; F 0.106; Q -0.087; S -0.001
R36: S -0.032; A 0.023; K 0.058; W -0.29; M -0.267
W12: R -0.537; G -0.331; S -0.261; K -0.557; F -0.165; L -0.087
G26: K -0.257; H 0.08; Q 0.038; S 0.04; M 0.057; C -0.197; L -0.28; P -0.547
A34: Q -0.289; P -0.309; F -0.385; W -0.232; H -0.001; I 0.089; E -0.001; L -0.201; D 0.351; K -0.098; T 0.022
A14: E -0.048; Q -0.264; M -0.602; D -0.2; K -0.251; G -0.286; L -0.558; P -0.19
F5: S -0.468; V -0.565; I -0.379; A -0.261; N -0.174; K -0.502; P -0.551; R -0.465; G -0.786
H23: N -0.967; A -0.739; C -0.561; R -0.724; P -0.443; E -0.6; I -0.884; G -0.689; K -0.44; M -0.569; T -0.717
C6: T -0.521; N -0.919; A -0.471; L -0.862; V -0.756; F -0.653; W -1; P -0.466; E -0.546; K -0.216
E21: T -0.034; H -0.475; L -0.19; R -0.05; F -0.437; M -0.332; D -0.15; C -0.36; Q -0.074; S -0.167
P18: K -0.175; R -0.162; Y -0.194; D -0.388; G -0.179; H -0.124; E -0.048; A -0.108; L -0.236; Q -0.12; T -0.381
V33: A -0.006; I -0.404; R -0.149; E 0.022; L -0.205; F -0.182
K27: E 0.036; G -0.096; W -0.218; L -0.114; S -0.128
K3: W -0.997; G -0.051; E 0.174; T -0.275; Q 0.082; R 0.013; H -0.569; F -0.881; M 0.074; Y 0.045; L -0.193; C -1.59; A -0.194
P2: I 0.015; G 0.136; V 0.06; R 0.047; S 0.115; Y -0.176; W -0.692; Q 0.179; D 0.365; L 0.045; K 0.294; M 0.615
I13: D -0.171; K -0.853; G -0.449; P -0.488; A -0.531; R -0.532; L -0.236; E -0.226; H -0.368; M 0.209; C -0.427; T -0.261
K10: Q -0.146; M -0.34; E -0.134; D 0.061; F -0.409; W -0.748; Y 0.002; S -0.151; V -0.551; A -0.126; P -0.482; R -0.088
R17: N -0.019; L -0.015; K -0.098; S 0.052; Q -0.008; W -0.389; V 0.008; G 0.005
C11: S 0.101; A 0.052; K -0.066; T 0.087; M 0.084; H -0.335; L -0.045; Q 0.139; D 0.144

From the Human Domainome abundance scans (Beltran et al. 2025)
